Paper PMC11565947 (bioRxiv, 2024)

T1: prefusion-stabilized hMPV F protein (hMPV prefusion F trimer) (human metapneumovirus; subgroup/strain …, stabilised)
T1 chain 1: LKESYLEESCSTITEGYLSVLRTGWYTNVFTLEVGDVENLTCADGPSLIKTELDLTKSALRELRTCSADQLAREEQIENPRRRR
T1 chain 2: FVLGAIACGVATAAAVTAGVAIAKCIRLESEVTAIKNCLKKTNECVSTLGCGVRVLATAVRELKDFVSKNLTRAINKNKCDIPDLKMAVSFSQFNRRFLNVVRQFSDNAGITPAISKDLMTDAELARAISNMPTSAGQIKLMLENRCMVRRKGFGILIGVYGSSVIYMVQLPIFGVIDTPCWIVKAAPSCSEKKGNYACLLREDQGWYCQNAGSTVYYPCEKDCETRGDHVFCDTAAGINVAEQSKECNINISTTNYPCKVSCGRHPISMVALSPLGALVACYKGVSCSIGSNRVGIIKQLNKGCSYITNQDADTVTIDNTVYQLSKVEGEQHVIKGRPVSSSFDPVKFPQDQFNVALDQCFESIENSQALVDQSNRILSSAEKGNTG

T2: prefusion-stabilized hMPV F construct hMPV F-DS-CavEs2-IPDS (human metapneumovirus, N-linked glycans (Asn172, Asn57))
T2 chain: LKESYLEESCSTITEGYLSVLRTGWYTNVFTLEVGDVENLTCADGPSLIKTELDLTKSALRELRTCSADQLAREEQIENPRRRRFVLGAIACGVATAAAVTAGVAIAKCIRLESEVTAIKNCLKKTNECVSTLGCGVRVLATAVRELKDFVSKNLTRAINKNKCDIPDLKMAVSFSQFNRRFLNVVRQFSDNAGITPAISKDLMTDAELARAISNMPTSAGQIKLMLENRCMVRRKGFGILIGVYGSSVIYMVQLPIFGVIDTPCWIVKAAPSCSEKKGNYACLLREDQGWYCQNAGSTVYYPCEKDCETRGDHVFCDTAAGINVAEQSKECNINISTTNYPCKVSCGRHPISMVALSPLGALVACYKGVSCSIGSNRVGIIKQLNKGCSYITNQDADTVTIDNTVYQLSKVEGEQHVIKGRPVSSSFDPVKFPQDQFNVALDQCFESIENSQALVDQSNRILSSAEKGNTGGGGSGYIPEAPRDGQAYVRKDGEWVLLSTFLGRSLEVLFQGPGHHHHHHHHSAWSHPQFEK

B1: monoclonal antibody 5–1 (recombinant human IgG1) (antibody, V domains shown)
VH: QGQLVQSGPEVKKPGATVKVSCRASAYPFGNYGITWVRQVPGQGLEWVGWISAYTGHTKFPQNFQGRVTLTADTSTSTGYMELRSLTSDDTAVYYCARGPCCSSPRPYDIWGQGTMVTVSS
VL: DIQMTQSPSTLSASVGDRVTITCRASQSIDDWLAWYQHSPGKAPKLLIYRASRLESGVPSRFSGSGSGTEFTLTISSLQPDDFASYYCQQCYTYSQTFGQGTRVEIK
B2: 5–1 antigen-binding fragment (Fab) (Fab, V domains shown)
VH: B1 VH
VL: B1 VL

How the values were obtained:
[1] = molecular target: prefusion-stabilized RSV F protein (RSV prefusion F trimer) (human respiratory syncytial virus A, …, UniProt P03420, stabilised); test: ELISA
[2] = molecular target: T1, prefusion-stabilized hMPV F protein …; test: cell-based or functional assay
[3] = molecular target: T2, prefusion-stabilized hMPV F construct …; test: cryo-EM structure

| Binder | binding result [1] | PRNT neutralisation of hMPV 97–83 and hMPV TN/93–32, IC50 [2] | stoichiometry N [3] |
| --- | --- | --- | --- |
| B1 | binds | < 10 ng/mL | – |
| B2 | – | – | 3 Fabs per trimer |
